Tests used:
NOX (NADH oxidase) = NOX (NADH oxidase) (Gluconobacter thailandicus, UniProt A0ABQ0IUG6); experiment: NOX activity: NADH/NADPH and flavin coenzyme specificity; assay type: biochemical, Gluconobacter oxydans IFO 3255; settings: flavin 0 to 300 μM, FIG. 19
Description: The change in absorbance in the first minute was taken as an initial rate, and the activity was calculated therefrom. The experimental group without the enzyme source was used as a blank. […] The measurement was taken three consecutive times. Their mean value was taken and is shown in the figure with the standard deviation.
The concentration of flavin in the reaction solution was 0 to 300 μM, and the others were adjusted to standard conditions.
The Km value for the substrate was calculated by measuring the activity with a variety of substrate concentrations and drawing a Lineweaver-Burk plot of the results.

[1] = test system: NADH oxidase activity in cell free extract of G. oxydans IFO 3255 sldA:Kmr mutant strain; experiment: NADH oxidation activity in acetobacterium cell-free extract; assay type: biochemical, Gluconobacter oxydans IFO 3255 sldA:Kmr; settings: pH 8.0, 0.03 mM FAD
Excerpt: The group without the extract was used as a control.

FcDH = FcDH (Gluconobacter thailandicus, UniProt A0ABQ0IZX0); experiment: NAD and NADP specificity of FcDH; assay type: biochemical, Gluconobacter oxydans IFO 3255; settings: data not shown
Description: The measurement was started when NAD was added. The change in absorbance in the first minute was taken as the initial rate, and the activity was calculated therefrom. […] The measurement was performed consecutively three times. Their mean value was taken and is shown in the figure with the standard deviation.
Since FcDH uses NAD as a coenzyme, the availability of NAD and NADP was measured. The activity was measured by adding NAD or NADP at various concentrations under standard conditions. The Km value for each coenzyme was calculated by drawing a Lineweaver-Burk plot of the results (FIG. 14 (B)).

[2] = substrate: OC[C@@H](O)[C@@H](O)[C@H](O)[C@@H](O)CO; experiment: Substrate specificity of purified FcDH (kcat, Km by Lineweaver-Burk plot); assay type: biochemical, Gluconobacter oxydans IFO 3255; settings: other: purified FcDH, pH 9.5, 30.0 °C
Description: (§1) The measurement was started when NAD was added. […] The measurement was performed consecutively three times.
(§2) Values of kcat and Km for each substrate were obtained by measuring the initial rate of the reaction with various substrate concentrations and drawing a Lineweaver-Burk plot of the results.
(§3) Lineweaver-Burk plots of the results in (A) and (B) are shown in FIG. 12 (C) and (D), respectively. The Km and kcat values were calculated from the range in which substrate inhibition was not observed, i.e., from a straight line represented by a broken line in FIG. 12 (C) and (D).

[3] = substrate: OC[C@@H](O)[C@@H](O)[C@H](O)[C@H](O)CO; experiment: as above; assay type: biochemical, Gluconobacter oxydans IFO 3255; settings: other: purified FcDH, pH 9.5, 30.0 °C
Description: as §1, §2, §3

[4] = substrate: OC[C@@H](O)[C@H](O)[C@H](O)[C@@H](O)CO; experiment: as above; assay type: biochemical, Gluconobacter oxydans IFO 3255; settings: other: purified FcDH, pH 9.5, 30.0 °C
Description: as §1, §2, §3

[5] = substrate: OC[C@@H](O)[C@@H](O)[C@@H](O)CO; experiment: purified protein, by the assay type; settings: other: purified FcDH, substrate; Lineweaver-Burk plot; pH 9.5; 30.0 °C
[6] = substrate: OC[C@@H](O)C(O)[C@H](O)CO; experiment: purified protein, by the assay type; settings: other: purified FcDH, substrate; Lineweaver-Burk plot; pH 9.5; 30.0 °C
[7] = substrate: OC[C@@H](O)[C@H](O)[C@@H](O)CO; experiment: purified protein, by the assay type; settings: other: purified FcDH, substrate; Lineweaver-Burk plot; pH 9.5; 30.0 °C
[8] = substrate: C[C@H](O)[C@@H](O)[C@@H](O)[C@H](O)CO; experiment: purified protein, by the assay type; settings: other: purified FcDH, substrate; Lineweaver-Burk plot; pH 9.5; 30.0 °C

Chain of NOX (NADH oxidase) (A0ABQ0IUG6 entry or part of it): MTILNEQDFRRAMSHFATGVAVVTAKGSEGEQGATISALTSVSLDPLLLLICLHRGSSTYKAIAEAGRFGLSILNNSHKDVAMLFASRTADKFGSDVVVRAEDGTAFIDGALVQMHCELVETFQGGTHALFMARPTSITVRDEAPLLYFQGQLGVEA

Cc1cc2nc3c(=O)[nH]c(=O)nc-3n(C[C@H](O)[C@H](O)[C@H](O)COP(=O)(O)OP(=O)(O)OC[C@H]3O[C@@H](n4cnc5c(N)ncnc54)[C@H](O)[C@@H]3O)c2cc1C [FAD]
NOX activation effect of flavin coenzyme (NOX (NADH oxidase)): NOX activation effect was observed | effect of FAD addition on NADH oxidation activity [1]: facilitated this activity

NC(=O)c1ccc[n+]([C@H]2O[C@@H](COP(=O)([O-])OP(=O)(O)OC[C@H]3O[C@@H](n4cnc5c(N)ncnc54)[C@H](OP(=O)(O)O)[C@@H]3O)[C@H](O)[C@@H]2O)c1 [NADP]
FcDH activity with NADP as the coenzyme (FcDH): no significant activity

B1: FcDH (L-fuculose-producing L-fucitol dehydrogenase) (Gluconobacter thailandicus NBRC 3257) (protein)
chain: MYMEKLRLDGRTAVVTGGAQNIGLACVTALAEAGARVVIADLDEAMAAQSAEELCAEGLDVRSIRMDVTSMENVQAAIKTLHEQEGHLDILVACAGICISEVKAEDMTEGQWLKQVDINLNGMFRCCQAVGRIMLEQKKGAIVAIGSMSGQIVNRPQQQAAYNASKAGVHQYIRSLAAEWAPYGIRANAVAPTYIETTLTRFGMEKPELYDAWIAGTPMGRVGQPDEVASVVHFLASDAASLMTGSIVNVDAGFTVW
Km [2]: 22.4 mM | Km [3]: 30.2 mM | Km [4]: 30.5 mM | Km [5]: 20.4 mM | Km [6]: 1.3 mM | Km [7]: 31.9 mM | Km [8]: 31.9 mM

— patent publication US7575910B2, “Method for producing L-fuculose and method for producing L-fucose” (priority 2004, dated 2009)
